What was measured:
KRAS(G12D), GDP-bound = biological target: T1, KRAS(G12D), GDP-bound (Meleagris gallopavo (Wild turkey), UniProt P79800 1-174, GDP bound non-covalently; biotin on the N-terminal Avi-tag, and the tag is not in the letters); assay: yeast display titration, flow cytometry
T1 construct: Same protein as m17, loaded with GDP

KRAS(G13D), GTPγS-bound = biological target: T2, KRAS(G13D), GTPγS-bound (Meleagris gallopavo (Wild turkey), UniProt P79800 1-174, GTPγS bound non-covalently; biotin on the N-terminal Avi-tag, and the tag is not in the letters); assay: yeast display titration, flow cytometry
T2 construct: Loaded with GTPγS; tagged and biotinylated in the yeast-display assay

KRAS(G12D), GTPγS-bound = biological target: T3, KRAS(G12D), GTPγS-bound (Meleagris gallopavo (Wild turkey), UniProt P79800 1-174, GTPγS bound non-covalently; biotin on the N-terminal Avi-tag, and the tag is not in the letters); assay: yeast display titration, flow cytometry
T3 construct: Loaded with GTPγS; tagged and biotinylated in the yeast-display assay

KRAS(G13D), GDP-bound = biological target: T4, KRAS(G13D), GDP-bound (Meleagris gallopavo (Wild turkey), UniProt P79800 1-174, GDP bound non-covalently; biotin on the N-terminal Avi-tag, and the tag is not in the letters); assay: yeast display titration, flow cytometry
T4 construct: Same protein as m19, loaded with GDP

[1] = biological target: KRAS(G12V) in cells (endogenous in PATU8902 and H441) (UniProt P01116-2 1-185, limits assumed)

B1: Monobody 12VC1 (designed binder)
chain: VSSVPTKLEVVAATPTSLLISWDAPAVTVFFYVITYGETGHGVGAFQAFKVPGSKSTATISGLKPGVDYTITVYARGYSKQGPYKPSPISINYRT
B1: no binding (tested: 100 nM) (KRAS(G12D), GDP-bound); no binding (tested: 100 nM) (KRAS(G13D), GTPγS-bound); no binding (tested: 100 nM) (KRAS(G12D), GTPγS-bound). For the same binder, the binding result (KRAS(G13D), GDP-bound) was “no binding (tested: 100 nM)” and the FoldChange [1] was 1360.
